Patent publication US20230023093A1 (University of Pennsylvania, published 2023)

B1: HIV-1 Env Fab (VRC01 based Fab generated from pHIV-1 Env Fab) (Fab, V domains shown)
VH: QVQLVQSGGQMKKPGESMRISCRASGYEFIDCTLNWIRLAPGKRPEWMGWLKPRGGAVNYARPLQGRVTMTRDVYSDTAFLELRSLTVDDTAVYFCTRGKNCDYNWDFEHWGRGTPVIVSS
VL: QIVLTQSPGTLSLSPGETAIISCRTSQYGSLAWYQQRPGQAPRLVIYSGSTRAAGIPDRFSGSRWGPDYNLTISNLESGDFGVYYCQQYEFFGQGTKVQVDI
B2: CHIKV-Env-Fab (Fab, V domains shown)
VH: QVQLVQSGSELKKPGASVKVSCKASGYTLTRYAMTWVRQAPGQGLEWMGWINTYTGNPTYVQGFTGRFVFSLDTSVSTAFLHITSLKAEDTAVYFCAREGGARGFDYWGQGTLVTVSS
VL: QSVLTQPPSVSGAPGQRVTISCTGSSSNIGASHDVHWYQQLPGTAPTLLIYVNSNRPSGVPDRFSGSKSGTSASLAITGLQAEDEADYYCQSYDSNLSGSAVFGGGTKLTVLG

Key:
[1] = molecular target: HIV-1 Env of the primary isolate Q23Env17 (pOpt-Env-A) (HIV-1 clade A, Q23Env17); test: cell-based or functional assay
[2] = molecular target: HIV-1 Env of Bal26 (clade B, Tier 1) on pseudotyped virus (HIV-1 clade B, Bal26); test: cell-based or functional assay
[3] = molecular target: HIV-1 Env of SF162S (clade B, Tier 1) on pseudotyped virus (HIV-1 clade B, SF162S); test: cell-based or functional assay
[4] = molecular target: T1, HIV-1 Env of clade B strain SF162 on transfected 293T cells (HIV-1 clade B, SF162, UniProt P19550 32-847); test: binding of day 6 mouse sera to Env expressed in transfected 293T cells (FIG. 12)
T1 construct: whole, on cells

[5] = molecular target: recombinant HIV-1 Env (subtype B; MN) protein (HIV-1 subtype B, MN, UniProt P05877 32-513); test: binding ELISA, serial dilutions of day 14 mouse sera

Row | Binder | plateau percent neutralization (TZM-Bl luciferase assay, sera 1:50) [1] [%] | plateau percent neutralization (TZM-Bl luciferase assay, sera 1:50) [2] [%] | plateau percent neutralization (TZM-Bl luciferase assay, sera 1:50) [3] [%] | binding result [4] | binding result [5]
1 | B1 | ~60 | ~62 | ~70 | binds | 
2 | B2 |  |  |  |  | no binding
